What all share (experiment): SPR, kinetics, Fab over captured mutant
Background: Surface plasmon resonance follows binding to a sensor surface in real time, without labels.

For assay [1], the target named is T1, shCD131 Q339A (human, UniProt P32927 17-438).
T1 construct: C-terminal 6xHis
T1 sequence: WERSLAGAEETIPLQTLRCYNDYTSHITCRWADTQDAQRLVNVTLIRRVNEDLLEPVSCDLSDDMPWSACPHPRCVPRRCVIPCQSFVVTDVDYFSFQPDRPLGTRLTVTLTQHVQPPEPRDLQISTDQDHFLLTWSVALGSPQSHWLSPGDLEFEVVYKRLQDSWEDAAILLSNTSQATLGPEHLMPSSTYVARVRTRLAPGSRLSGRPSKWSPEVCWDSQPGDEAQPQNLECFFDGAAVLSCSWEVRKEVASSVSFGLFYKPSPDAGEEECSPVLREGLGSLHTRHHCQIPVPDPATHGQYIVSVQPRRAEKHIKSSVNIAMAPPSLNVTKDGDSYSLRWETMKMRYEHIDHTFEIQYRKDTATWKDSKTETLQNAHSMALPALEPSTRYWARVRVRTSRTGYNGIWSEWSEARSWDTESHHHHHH
The protocol: (§1) As shβc is a dimer, kinetics assays were performed with shβc captured on the sensor surface, and purified Fab injected as the analyte. Avidity effects were avoided by the use of Fab rather than whole IgG.
(§2) shCD131 was captured on spots 1 and 5 of each flow cell for 2 minutes at a concentration of 0.4 μg/ml. […] For some analysis purified Fab was injected over each flow cell for 3 minutes and dissociation was monitored for a further 10 minutes. Regeneration of the surface was performed after each cycle with a 40 second injection of 25 mM glycine, pH 2.0. The analysis was performed with Fabs at several concentrations between 100 and 0.31 nM, with each concentration analyzed twice and in random order. The analysis was performed at a flow rate of 30 μl/min in HBS-EP buffer (10 mM Hepes, 150 mM NaCl, 3 mM EDTA, 0.005% Tween 20, pH 7.4) at 37° C. Responses from spots 2 and 4 of each flow cell, (in which shβc was not captured, but otherwise treated identically), were subtracted from those of spots 1 and 5 respectively to produce reference subtracted data. Reference subtracted responses from a blank injection comprising buffer alone were subtracted from the resultant sensorgrams to produce double referenced data suitable for kinetic analysis. Double-referenced sensorgrams were fitted using non-linear regression to a model describing 1:1 kinetics, including a term for mass transport limitation. The Rₘₐₓ value was fitted locally to account for slight deviations in the level of sCD131 captured, with association rate (kₐ), dissociation rate (kd) and equilibrium dissociation constant (KD) fitted globally.
(§3) Mapping of the shCD131 epitope was performed by measurement of the affinity of Fabs for various alanine point mutants of shCD131 essentially as described above, with the following exceptions. Each shCD131 mutant was captured for 120 seconds at concentrations between 1 and 5 μg/ml. For kinetic analysis, purified recombinant Fabs were injected for 2 minutes, and dissociation was monitored for a further 2 minutes. […] Fab concentrations ranged from 16 μM to 3.9 nM in two-fold dilutions.

The target of assay [2] is T2, shCD131 H42A (human, UniProt P32927 17-438).
T2 construct: C-terminal 6xHis
T2 sequence: T1 sequence with H26A, A323Q
The protocol:
as §1, §2, §3

In assay [3] the target is T3, shCD131 V104A (human, UniProt P32927 17-438).
T3 construct: C-terminal 6xHis
T3 sequence: T1 sequence with V88A, A323Q
The method, then: as §1, §2, §3

Assay [4] deals with T4, shCD131 V108A (human, UniProt P32927 17-438).
T4 construct: C-terminal 6xHis
T4 sequence: T1 sequence with V92A, A323Q
The protocol: as §1, §2, §3

Residue numbers refer to the chain shown, from its start.

B1: 9A2 Fab (Fab, V domains shown)
VH: EVQLLESGGGLVQPGGSLRLSCAASGFTFSHYHMLWVRQAPGKGLEWVSSIRSSGGFTYYADSVKGRFTISRDNSKNTLYLQMNSLRAEDTAVYYCARFYDSFFDIWGQGTMVTVSS
VL: DIQMTQSPSSVSASVGDRVTITCRASQGISSWLAWYQQKPGKAPKLLIYAASSLQSGVPSRFSGSGSGTDFTLTISSLQPEDFATYYCQQANSFPITFGQGTRLEIKR
notes: also called recombinant Fab of 9A2
On to B1, for which the Kd – broadly, the constant that tells how readily two partners part at equilibrium – in assay [1] was determined as 0.144 µM; in assay [2] it was 0.041 µM; in assay [3], 0.117 µM; in assay [4], 0.083 µM.

The values above are taken from US20190062438A1 (CSL, published 2019).
